Data on four molecules can be found in patent US20230226096A1 (Orna Therapeutics, Inc., priority 2020, published 2023).

Sequences and labels used below:
B1: Bat Picornavirus 1 (nucleic acid)
DNA: GAAACCCGTATACACCGGACCTTTTCTCCCCTCCCTCTCCACTTACCTTTTTCCCCTCTTCGGCATGAAACAAGGATTATTCAAGTGGAAACGCGATTTAATATGCGGCTGGCCACCGCGGAATAACGGCAATTGTGTATCTGCTGGAAGCCAAGCCTGCCTAGCCGATAGCCCTTGACCGGGTGTGTAGGATAGCCCAGGAACCAGCAATACGCGACAGGTTATGGTAGAGTAGATACCTAGCCAGGGGCAATGGGACTGCATTGCATATCCCTAATGAACCATTGAGATTTCTCTGGTCATTACCCGGTGATGGTTACTAGAGGGGGGCCTCTAGTACTAGATCTATACTGCCTGATAGGGTCGCGGCTGGCCGACCATGACCTGTATAGTCAGTTGATTTGAGCAAT
B2: Bat dicibavirus (nucleic acid)
DNA: GTATAGCACCGGAATGGTATTTTACTACTCCAAGTATACGTACTAGGAGTTAAACCCTGTAATTTACAGGGGATTTAGTGACTTTTATCCGTAAAAGTCGATTGGACGTTAATCGGTAACGAGGCCAAGTACCGTGAACCAATTTAAAAACGTATTTTCTCATGTGGTAGAACCAACTTGGAAATAGCATGGCATATAGGTTGTTTAGGG
B3: Bat Iflavirus (nucleic acid, listed as Iflavirus sp.)
DNA: ACGAATCGGTATACGCTTCGGTACCTATTGTTGCAAGTTCGTTCCCTATTTTCGATTTGCCTGCCCGAATTTGACTCAAACAATTGTGACATACTATGTCTCTGTTTGAAAGCACTACACGAGTTTGCGCCCAGCATGTATGTTTTCAAGTCTTTTGTATAAGTCTGCCTCTATAGTGGTTTTCTTTGACCTTAAAGCCTTGTCAACCATCCTATATGCTGCATCGAGACTTGATGTCAATCTGCCTCTACTACGCAAATGTCTAGTAATTAGTTATAAGGTTTTACTATTTTCCCTCATTTCCAATTTTAGTTTGTAGTGTATGTGAGTATCATTCTTACTCCGACTGTTAAGAGAAACCAATTTATAGTCGTTAAATATGATAAATGGAATGAATGATGGTGTCATTTTAAAAACACTCTTCTCTATAGGCGTAAGCATTCTCGCTCTTAGAGTCGTAAAGAAGAAATGCCGTGTCTATCAGTATGTTATGCGATTTATTTTCTGCCACGCGCTTCTAGTGCAATCTAGTTGACATACAGACATTGCCTACCACTCGCGAGGGTCGACCGGTAGTGTAAGGAGTAAGTGATGATTTCCGCTTATTCTGTACCCTTTGCCTGGTGAGGACAGATCCTGACTAATTTTAAATATAAATGAACACTAGCTTCCAAG
B4: Boone cardiovirus 1 (nucleic acid, listed as Cardiovirus sp.)
DNA: TACGATCGCTGTACATTCCACTACTGCCAATTAGCTCCCCCTTCCCGTTGCTCCCCTCTATAAGGAGAGCCTTCTCTTGCAAAGGTGAAGCCTTCACCCCCGGTCGAAGCCGCTTGGAATAAGACAGGGTTATTTTCTCCTCTCCTCGGCGCTTGCCTCTTCTAAGCTGAATAGGTTCTATCTATTCAGGCGGATGGTCTGGTCCGTTCCTTCTTGGACAGAGTGTGTATCTGGGTTTTCCGGATCTCGACCACACACTCACCAGAGCTCAGGAGTGATTAAGTCAAGGCCCGATCTGCGGCGAAAAGGAAATGAAGTATTTTGCAGCTGTAGCGACCTCTCAAGGCCAGCGGATTTCCCCACCTGGTGACAGGTGCCTCTGGGGCCAAAAGCCACGTGTTAATAGCACCCTTGAGAGCGGTGGTACCCCACCACCCTGCAAATTATGGATTTGACTTAGTAACTAAAAGATTGACTTGGCATACCTCAACCTGAGCGGCGGCTAAGGATGCCCTGAAGGTACCCGTGTTGAAATCGCTTCGGCGACCATGGATCTGATCAGGGGCCCTGCCTGGAGTGGTTCTATCCCACACAGCGTAGGGTTAAAAAACGTCTAACCGCCCCACAAAGACCCCGGCAGGGATGCCGGTTTCCTTTTTACCAATTCTTGACACT

In the series the test system is HEK293 cells. The format is cell-based, human. Particulars: luminescence from secreted Gluc in supernatant 24 hours after transfection of HEK293 cells; circular RNA encoding Gluc with the named IRES (UTR truncated to 675 nt).
On to B1, for which the Expression worked out at 1.85E+07.
On to B2, for which the Expression worked out at 7.43E+04.
Consider B3, for which the Expression is recorded as 9.76E+04.
On to B4, for which the Expression came out at 2.62E+06.
